We go through three molecules from patent US9217032B2, “Methods for treating colorectal cancer” (LES LABORATOIRES SERVIER, priority 2010, dated 2015).

The subject of test [1] is SW620 metastatic colorectal cancer cells. The test can be described thus: Growth of SW620 cells in culture, monoclonal antibodies. The test is classed as cell-based, human. The note with it: for reduction of growth of SW620 cells compared to control antibody: MAb1-MAb4, 48 hours; for Cell numbers: SW620, 48 hours, treated every 12 hours, average cells per well minus cells seeded (T0), CT antibody-T0 158556. The protocol:
(§1) SW620 cells were seeded into 6-well plates, serum-starved overnight, then treated every 12 hours with PBS, 3 microgram/ml control antibody (Mouse anti-human IgG1, Calbiochem, Ref #411451) or four different anti-PG monoclonal antibodies, MAb3, MAb4, MAb2, and MAb1. The experiment was carried out in duplicate, and the technician was blinded as to the contents of the treatment solutions. Forty-eight hours after the start of the treatments the number of surviving cells in each well were counted six times and averaged.
In a separate experiment, SW620 cells were seeded into 6-well plates (100,000 cells per well) and treated similarly above with 5 μg/ml of anti-hPG monoclonal antibodies 5-23 (i.e., MAb5-MAb23) or 5 μg/ml control antibody. After 48 hours the number of viable cells were counted from which the number of cells at the beginning of the experiment (i.e., T0) were subtracted. The number of surviving cells in the specific antibody treated wells was then expressed as a percentage of the control.

Test [2] relates to CRC1 primary colorectal cancer cells. The test can be described thus: Spheroid formation by CRC1 cells in low adherence culture, monoclonal antibodies. The conditions noted are these: CRC1, 3 μg/ml; p<0.05 one-way ANOVA with Bonferroni; FIG. 20. The test is classed as cell-based, human. The protocol:
CRC1 cells were obtained from a human colon carcinoma biopsy according to standard procedures. After being dissociated in Accumax (Sigma) for 45 minutes at 37° C., cells were plated in low adherence 96 well-plates (Corning) at a density of 100 cells per well in M11 medium (DMEM/F12 with 20 ng/ml EGF, 10 ng/ml FGF, 20 μg/ml insulin, N2 supplement, 2 μg/ml cyproflaxin, 5 μg/ml gentamycin and 3 mg/ml glucose). For each treatment arm, 10 wells were used. Starting on the first day, cells were treated twice daily with one of four different anti-progastrin monoclonal antibodies, MAb5, MAb8, MAb13 or MAb16 (3 μg/ml) or the same concentration of monoclonal antibody P3X63Ag8 (ATCC, Ref TIB-9) or medium with no antibody added as controls. Thereafter, treatment was performed once daily for 8 days. Spheres were photographed daily for subsequent counting. All experiments were carried out in blinded fashion. After the conclusion of the experiment, the number of spheres from each treatment art was counted.

The test system is the same in test [3]. The test can be described thus: Pre-treatment of CRC1 cells: spheroids in low adherence culture. It is filed as cell-based, human. The conditions noted are these: 72 hours pre-treatment, then 7 days low adherence without antibody, FIG. 23, MAb5, MAb8, MAb16 p<0.05. The protocol: (§2) CRC1 cells were obtained from a human colon carcinoma biopsy according to standard procedures. After being dissociated in Accumax (Sigma) for 45 minutes at 37° C., CRC1 cells (100,000 cells/well) were grown under conventional adherent culture conditions in serum free DMEM medium for 72 hours in the presence or absence of anti-hPG monoclonal antibodies MAb5, MAb8, MAb13 or MAb16. Experiments were carried out in blinded fashion. At the end of the treatment period, two different assays were performed on the cells. First, the percentage of cells expressing ALDH1, a marker of colorectal cancer stem cells, was determined by FACS. In the second assay, for each treatment group, 200 cells/well were plated in six wells of a low adherence 24-well plate in 500 μl of serum-free M11 medium supplemented with bFGF and EGF, and grown for 7 days without further treatment. At the end of this period, photographs were taken and the number of spheres per well was counted, and sphere surface area measured.

For test [4] the test system is unchanged. Briefly: Pre-treatment of CRC1 cells: ALDH1 expressing cells by FACS. The note with it: 72 hours in conventional adherent culture; FIG. 22. The test is classed as cell-based, human. The protocol: as §2
(Flow cytometry measures light scatter and fluorescence of single cells or particles in a stream.)

The subject of test [5] is SW620 colorectal cancer cells. Briefly: Initiation of new tumors after transplantation of cells from treated metastases. It is filed as in vivo, BALBc/nude mice. The conditions noted are these: 6,500 cells subcutaneously into thighs of two nude mice; tumor volume; FIG. 29. The protocol: (§3) Using standard techniques, immunodeficient BALBc/nude mice were given intra-splenic injections of human metastatic SW620 colorectal cancer cells. The mice were then administered the anti-hPG monoclonal antibody MAb3 or a control monoclonal antibody twice per week for a total of six weeks. For each antibody, the dose was 8 mg/kg. At the end of the treatment period tissue was dissected from metastases from both treated and control mice. Tumor cells were disaggregated by treatment of the dissected tissue with Accumax, filtered and counted. A total of 23,800 viable tumor cells were obtained from metastatic tissue from the mice treated with MAb3, and 36,400 were obtained from control mice.
(§4) For the spheroid test, for each of the treated and control cells, 2,000 cells/well were seeded into five wells of low adherence cultureware in M11 medium supplemented with bFGF and EGF. Cells were grown for seven days, and then the number of spheroids that formed in each well was counted. For the transplantation test, spheroids developing from cells isolated from treated and control metastases were pooled, disaggregated and counted. A total of 20,000 cells were obtained from spheroids derived from treated metastases, and 110,000 cells were obtained from spheroids derived from control metastases. […] Tumor volume was then calculated through time in both animals.

Test [6] deals with T84 metastatic colorectal cancer cells. Briefly: Growth of T84 cells in culture. The conditions noted are these: FIG. 7; P value 0.0370 Mann Whitney. The test is classed as cell-based, human. The protocol: as §1
The methods employed for this experiment were similar to those used to measure the effect of anti-progastrin monoclonal antibodies on SW620 cells, except that the anti-progastrin antibody used was anti-hPG MAb3.

The subject of test [7] is SW620 metastatic colorectal cancer cells. Briefly: Pre-treatment of SW620 cells: ALDH1 positive cells (ALDEFLUOR). The conditions noted are these: pre-treatment 72 hours, 1 μg/ml, FIG. 25. It is filed as cell-based, human. The protocol: (§5) Cells tested were from the metastatic colorectal cancer cell lines T84 and SW620. Cells were first grown in conventional adherent cultureware for 72 hours in the presence of the anti-progastrin monoclonal antibody MAb3 (1 μg/ml), a control monoclonal antibody, the chemotherapeutic agent 5-fluorouracil (5FU 10 μM), or the solvent dimethylsulfoxide (DMSO). After treatment, cells were subjected to two assays. In the first, the percentage of cells positive for the cancer stem cell marker ALDH1 were determined using an ALDEFLUOR kit (Stemcell Technologies). In the second assay, for each treatment group, cells were plated into six wells of low adherence 96 well-plates at a density of 500 cells per well in 100 μl of serum-free medium containing bFGF and EGF and grown for 11 days without further treatment. After the end of this period, the number of spheroids per well was then counted.

The test system of another test is SW620 cells. Briefly: Hepatic metastases by SW620 cell xenografts in nude mice, monoclonal antibody. It is filed as in vivo, BALBc/nude mice. The protocol:
A total of 5×10^6 SW620 cells were injected into the spleen of each of 20 BALBc/nude mice at age 5 weeks old. Two minutes after injection of the cells, the spleens were surgically removed. After recovery, mice were randomly divided into two groups, each of which was subjected to one of two different treatments. Specifically, 10 mice were injected with a control antibody (anti-human IgG1Fc) diluted in PBS, and 10 mice were injected with anti-hPG monoclonal antibody MAb3, also diluted in PBS. The dose of antibodies was 8 mg/kg in a volume of 150 microliters. Injections were made intraperitoneally twice per week for six weeks. Once per week each mouse was weighed. Six weeks later, after the course of injections was finished, the mice were euthanized with carbon dioxide and the livers were removed and the number of visible metastases present was counted.

The subject of test [8] is T84 metastatic colorectal cancer cells. Briefly: Pre-treatment of T84 cells: ALDH1 positive cells (ALDEFLUOR). The conditions noted are these: pre-treatment 72 hours, 1 μg/ml, FIG. 24. It is filed as cell-based, human. The protocol:
as §5

The test system of test [9] is SW620 colorectal cancer cells. Briefly: Cells isolated from SW620 metastases of treated nude mice: cell count and spheroid growth. The test is classed as in vivo, BALBc/nude mice. The protocol:
as §3, §4

B1: MAb4: murine N-terminal anti-hPG monoclonal antibody, hybridoma 20D2C3G2, VH SEQ ID NO:14, VL SEQ ID NO:15 (antibody, V domains shown)
VH: QVQLQQSGAELMKPGASVKISCKATGYTFSSSWIEWLKQRPGHGLEWIGEFLPGSGSTDYNEKFKGKATFTADTSSDTAYMLLSSLTSEDSAVYYCATDGNYDWFAYWGQGTLVTVSA
VL: DLVMTQTPLSLPVSLGDQASISCRSSQSLVHSSGVTYLHWYLQKPGQSPKLLIYKVSNRFSGVPDRFSGSGSGTDFTLKISRVEAEDLGVYFCSQSTHVPPTFGSGTKLEIK
On to B1, for which, in [1], the “reduction of growth of SW620 cells compared to control antibody” value was “more effective than the others” and the Cell numbers is 52984.

B2: MAb8: murine C-terminal anti-hPG monoclonal antibody, hybridoma 1C10D3B9, VH SEQ ID NO:59, VL SEQ ID NO:63 (antibody, V domains shown)
VH: EVQLVESGGGLVKPGGSLKLSCAASGFTFTTYAMSWVRQTPEKRLEWVATISSGGTYTYYPDSVKGRFTISRDNAKNALYLQMSSLRSEDTAMYYCATQGNYSLDFWGQGTSLTVSS
VL: DIVMTQAASSNPVTLGTSASISCRSSKSLRHTKGITFLYWYLQKPGQSPQLLIYQMSNLASGVPDRFSSSGSGTDFTLRISRVEAEDLGVYYCAQNLELPLTFGAGTKLELK
For the molecule B2, in [2], the “number of spheroids formed compared to non-specific antibody and medium alone” value was “effective to reduce the number spheroids”. Also, the “number of spheroids formed after pre-treatment compared to control” value in test [3] is recorded as “effective to reduce the number of spheroids”. Further, the “number of CRC1 cells expressing ALDH1 compared to control” value in [4] is on record as “reduce the number CRC1 primary colorectal cancer cells expressing ALDH1”.

B3: MAb3: murine N-terminal anti-hPG monoclonal antibody, hybridoma 6B5B11C10, VH SEQ ID NO:12, VL SEQ ID NO:13 (antibody, V domains shown)
VH: EVQLQQSGTVLARPGASVKMSCKASGYIFTSYWVHWVKQRPGQGLEWIGGFYPGNSDSRYNQKFKGKATLTAVTSASTAYMDLSSLTNEDSAVYFCTRRDSPQYWGQGTTLTVSS
VL: DVLMTQTPLSLPVSLGDQASISCRSSQSIVHSNGNTYLEWYLQKPGQSPKLLIYKVSNRFSGVPDRFSGSGSGTDFTLKISRLEAEDLGVYYCFQGSHVPFTFGGGTKLEIK
Take B3: the “ability to initiate new tumor growth after transplantation” value in test [5] is “reduced”. In addition, the “reduction of growth of T84 cells compared to control antibody” value in test [6] is given as “effective to reduce the growth of T84 metastatic colorectal cancer cells”. The “number of ALDH1 positive cells compared to control antibody” value in test [7] is “reduced”. The “mean weight of liver metastases” value in the test with SW620 cells (8 mg/kg i.p. twice per week, six weeks, control mice 167 mg, not statistically significant) is given as 96 mg. Further, the “decrease of mean number of metastases versus control antibody” value in the test on SW620 cells (8 mg/kg i.p. twice per week, six weeks, p=0.0372) is 41%. Moreover, in the test with SW620 cells (8 mg/kg intraperitoneally twice per week for six weeks, control antibody 7.3), the “mean number of metastases” value is reported as 4.3. Moreover, the “number of ALDH1 positive cells compared to control antibody” value in test [8] is on record as “reduced”. The “viable tumor cells obtained from metastatic tissue” value in test [9] (8 mg/kg twice per week for six weeks, control mice 36,400) is 23,800. Moreover, the “growth as spheroids of cells isolated from in vivo metastases” value in test [9] (mice treated 8 mg/kg twice per week six weeks, 2,000 cells/well, seven days, FIG. 28) was “reduced”. In addition, in [1], the “reduction of growth of SW620 cells compared to control antibody” value was “more effective than the others” and the Cell numbers turned out to be 50056.
